# Results published in paper PMC10329019, “Membrane translocation process revealed by in situ structures of type II secretion system secretins” (Nature Communications, 2023).
# B1: GspDβ secretin (ETEC H10407 strain) with hexahistidine tag, from pETDuet-gspDβ-his-gspS, co-expressed with GspS (natural protein, UniProt E3PJ86 41-686, looked up)
# chain: EEATFTANFKDTDLKSFIETVGANLNKTIIMGPGVQGKVSIRTMTPLNERQYYQLFLNLLEAQGYAVVPMENDVLKVVKSSAAKVEPLPLVGEGSDNYAGDEMVTKVVPVRNVSVRELAPILRQMIDSAGSGNVVNYDPSNVIMLTGRASVVERLTEVIQRVDHAGNRTEEVIPLDNASASEIARVLESLTKNSGENQPATLKSQIVADERTNSVIVSGDPATRDKMRRLIRRLDSEMERSGNSQVFYLKYSKAEDLVDVLKQVSGTLTAAKEEAEGTVGSGREIVSIAASKHSNALIVTAPQDIMQSLQSVIEQLDIRRAQVHVEALIVEVAEGSNINFGVQWASKDAGLMQFANGTQIPIGTLGAAISQAKPQKGSTVISENGATTINPDTNGDLSTLAQLLSGFSGTAVGVVKGDWMALVQAVKNDSSSNVLSTPSITTLDNQEAFFMVGQDVPVLTGSTVGSNNSNPFNTVERKKVGIMLKVTPQINEGNAVQMVIEQEVSKVEGQTSLDVVFGERKLKTTVLANDGELIVLGGLMDDQAGESVAKVPLLGDIPLIGNLFKSTADKKEKRNLMVFIRPTILRDGMAADGVSQRKYNYMRAEQIYRDEQGLSLMPHTAQPVLPAQNQALPPEVRAFLNAGRTR
# notes: GspDβ, Vibrio-type type II secretion system secretin encoded in the T2SSβ operon, ETEC H10407 strain; Probably the same C-terminally tagged chain as m2 (surmised); also called Vibrio-type secretin; copies: 15
# B2: GspDβ secretin (ETEC H10407 strain) with C-terminal hexahistidine tag, from pETDuet-gspDβ-his, expressed alone (natural protein, UniProt E3PJ86 41-686, looked up)
# chain: B1 chain
# notes: GspDβ, Vibrio-type type II secretion system secretin encoded in the T2SSβ operon, ETEC H10407 strain; The results name BL21(DE3) for this experiment, the methods name Rosetta (DE3) for cryo-ET imaging; also called Vibrio-type secretin; source: E. coli Rosetta (DE3) minicells (co-transformed with pBS58), pETDuet-gspDβ-his, overexpressed, imaged in the cells; copies: 15
# B3: GspDα secretin (E. coli K12 strain), no tag (natural protein, UniProt P45758 24-650, looked up)
# chain: ENEQYGANFNNADIRQFVEIVGQHLGKTILIDPSVQGTISVRSNDTFSQQEYYQFFLSILDLYGYSVITLDNGFLKVVRSANVKTSPGMIADSSRPGVGDELVTRIVPLENVPARDLAPLLRQMMDAGSVGNVVHYEPSNVLILTGRASTINKLIEVIKRVDVIGTEKQQIIHLEYASAEDLAEILNQLISESHGKSQMPALLSAKIVADKRTNSLIISGPEKARQRITSLLKSLDVEESEEGNTRVYYLKYAKATNLVEVLTGVSEKLKDEKGNARKPSSSGAMDNVAITADEQTNSLVITADQSVQEKLATVIARLDIRRAQVLVEAIIVEVQDGNGLNLGVQWANKNVGAQQFTNTGLPIFNAAQGVADYKKNGGITSANPAWDMFSAYNGMAAGFFNGDWGVLLTALASNNKNDILATPSIVTLDNKLASFNVGQDVPVLSGSQTTSGDNVFNTVERKTVGTKLKVTPQVNEGDAVLLEIEQEVSSVDSSSNSTLGPTFNTRTIQNAVLVKTGETVVLGGLLDDFSKEQVSKVPLLGDIPLVGQLFRYTSTERAKRNLMVFIRPTIIRDDDVYRSLSKEKYTRYRQEQQQRIDGKSKALVGSEDLPVLDENTFNSHAPAPSSR
# notes: The untagged vector was used for cryo-ET imaging; the His-tagged one only for blots; also called Klebsiella-type secretin; GspDα multimer; copies: 15
# Legend:
# [1] = biological target: the molecule itself; assay: cryo-EM structure; in situ cryo-ET subtomogram averaging of particles on the outer membrane of E. coli minicells overexpressing GspDβ and GspS; 514 particles, C15 symmetry, 19 Å; C5 refinement as a test of symmetry
# [2] = biological target: the molecule itself; assay: cryo-EM structure; in situ cryo-ET subtomogram averaging of particles on the outer membrane of E. coli minicells overexpressing only GspDβ; 723 particles, C15 symmetry, 16 Å; C5 refinement as a test of symmetry
# [3] = biological target: the molecule itself; assay: cryo-EM structure; in situ cryo-ET subtomogram averaging of GspDα particles on the inner membrane of E. coli BL21 (DE3) minicells; about 32,000 particles, C15 symmetry, 9 Å; particle radius histogram
protein,measurement,setting,value
B1,stoichiometry N,[1],15
B2,stoichiometry N,[2],15
B3,stoichiometry N,[3],15
